Source: publication PMC10988713
Substitutions are numbered along the chain they refer to. Names may count otherwise.

B1: BCDE (Rattus norvegicus) (protein)
chain: ASGQAKALQYAFFAEKSANKWSTPSGASWKTASAQPVSSVGVLGLGTMGRGIAISFARVGISVVAVESDPKQLDAAKKIITFTLEKEASRAHQNGQASAKPKLRFSSSTKELSTVDLVVEAVFEDMNLKKKVFAELSALCKPGAFLCTNTSALNVDDIASSTDRPQLVIGTHFFSPAHVMRLLEVIPSRYSSPTTIATVMSLSKKIGKIGVVVGNCYGFVGNRMLAPYYNQGFFLLEEGSKPEDVDGVLEEFGFKMGPFRVSDLAGLDVGWKIRKGQGLTGPSLPPGTPVRKRGNSRYSPLGDMLCEAGRFGQKTGKGWYQYDKPLGRIHKPDPWLSTFLSQYREVHHIEQRTISKEEILERCLYSLINEAFRILEEGMAARPEHIDVIYLHGYGWPRHKGGPMFYAASVGLPTVLEKLQKYYRQNPDIPQLEPSDYLRRLVAQGSPPLKEWQSLAGPHGSKL
notes: truncated RnMFE1 from Ala260 (ASGQ) to the C-terminus, without domain A (ECH part); N-terminal His6 tag, E. coli BL21(DE3) pLysS
B2: HsHAD (Homo sapiens) (protein)
chain: SSSSTASASAKKIIVKHVTVIGGGLMGAGIAQVAAATGHTVVLVDQTEDILAKSKKGIEESLRKVAKKKFAENLKAGDEFVEKTLSTIATSTDAASVVHSTDLVVEAIVENLKVKNELFKRLDKFAAEHTIFASNTSSLQITSIANATTRQDRFAGLHFFNPVPVMKLVEVIKTPMTSQKTFESLVDFSKALGKHPVSCKDTPGFIVNRLLVPYLMEAIRLYERGDASKEDIDTAMKLGAGYPMGPFELLDYVGLDTTKFIVDGWHEMDAENPLHQPSPSLNKLVAENKFGKKTGEGFYKYK
notes: N-terminal His6 tag in pET28a, E. coli BL21(DE3) pLysS, dimer of 35 kDa subunits
B3: RnMFE1 (Rattus norvegicus) (protein)
chain: MAEYLRLPHSLAMIRLCNPPVNAVSPTVIREVRNGLQKAGSDHTVKAIVICGANGNFCAGADIHGFSAFTPGLALGSLVDEIQRYQKPVLAAIQGVALGGGLELALGCHYRIANAKARVGLPEVTLGILPGARGTQLLPRVVGVPVALDLITSGKYLSADEALRLGILDAVVKSDPVEEAIKFAQKIIDKPIEPRRIFNKPVPSLPNMDSVFAEAIAKVRKQYPGVLAPETCVRSIQASVKHPYEVGIKEEEKLFMYLRASGQAKALQYAFFAEKSANKWSTPSGASWKTASAQPVSSVGVLGLGTMGRGIAISFARVGISVVAVESDPKQLDAAKKIITFTLEKEASRAHQNGQASAKPKLRFSSSTKELSTVDLVVEAVFEDMNLKKKVFAELSALCKPGAFLCTNTSALNVDDIASSTDRPQLVIGTHFFSPAHVMRLLEVIPSRYSSPTTIATVMSLSKKIGKIGVVVGNCYGFVGNRMLAPYYNQGFFLLEEGSKPEDVDGVLEEFGFKMGPFRVSDLAGLDVGWKIRKGQGLTGPSLPPGTPVRKRGNSRYSPLGDMLCEAGRFGQKTGKGWYQYDKPLGRIHKPDPWLSTFLSQYREVHHIEQRTISKEEILERCLYSLINEAFRILEEGMAARPEHIDVIYLHGYGWPRHKGGPMFYAASVGLPTVLEKLQKYYRQNPDIPQLEPSDYLRRLVAQGSPPLKEWQSLAGPHGSKL
B4: RnMFE1 (Rattus norvegicus; E123A) (protein)
chain: B3 chain with E123A

Experiments:
purified protein [1] = substrate: C[C@H](O)CC(=O)SCCNC(=O)CCNC(=O)[C@H](O)C(C)(C)COP(=O)(O)OP(=O)(O)OC[C@H]1O[C@@H](n2cnc3c(N)ncnc32)[C@H](O)[C@@H]1OP(=O)(O)O; experiment: purified protein; assay type: biochemical, Rattus norvegicus; conditions: 1 mM NAD+, pH 9.0, 50 mM Tris, 50 mM KCl, 25 °C, HAD dehydrogenase reaction
purified protein [2] = substrate: C[C@H](O)CC(=O)SCCNC(=O)CCNC(=O)[C@H](O)C(C)(C)COP(=O)(O)OP(=O)(O)OC[C@H]1O[C@@H](n2cnc3c(N)ncnc32)[C@H](O)[C@@H]1OP(=O)(O)O; experiment: purified protein; assay type: biochemical, Homo sapiens; conditions: 1 mM NAD+, pH 9.0, 50 mM Tris, 50 mM KCl, 25 °C

| Protein | Km (purified protein [1]) [µM] | kcat (purified protein [1]) [s⁻¹] | Km (purified protein [2]) [µM] | kcat (purified protein [2]) [s⁻¹] |
| --- | --- | --- | --- | --- |
| B1 | 5.2 ± 0.9 | 1.6 ± 0.1 | – | – |
| B2 | – | – | 19 ± 0.9 | 42 ± 2 |
| B3 | 11 ± 2 | 1.9 ± 0.3 | – | – |
| B4 | 10 ± 0.6 | 2.4 ± 0.1 | – | – |
